Data taken from patent US20180022779.

B1: human CytB5R3 (endogenous, vascular cell co-culture and human coronary ECs) (protein)
chain: GAQLSTLGHMVLFPVWFLYSLLMKLFQRSTPAITLESPDIKYPLRLIDREIISHDTRRFRFALPSPQHILGLPVGQHIYLSARIDGNLVVRPYTPISSDDDKGFVDLVIKVYFKDTHPKFPAGGKMSQYLESMQIGDTIEFRGPSGLLVYQGKGKFAIRPDKKSNPIIRTVKSVGMIAGGTGITPMLQVIRAIMKDPDDHTVCHLLFANQTEKDILLRPELEELRNKHSARFKLWYTLDRAPEAWDYGQGFVNEEMIRDHLPPPEEEPLVLMCGPPPMIQYACLPNLDHVGHPTERCFVF
B2: FLAG-tagged CytB5R3 (Origene) (protein)
chain: B1 chain

Target: purified Hb α chains (isolated from lyophilized hemoglobin, Sigma), P69905
Sequence (P69905 2-142): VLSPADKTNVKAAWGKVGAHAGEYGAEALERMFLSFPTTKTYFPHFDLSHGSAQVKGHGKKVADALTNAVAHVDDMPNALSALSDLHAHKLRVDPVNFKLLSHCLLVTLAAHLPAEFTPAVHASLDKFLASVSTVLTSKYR

Protein	met-Hb α reduction, time lapse UV-visible spectrometry of EC lysates mixed with purified Hb α chains and NADH	met-Hb α reduction, time lapse UV-visible spectrometry of lysates of ECs transfected with CytB5R3-Flag, mixed with purified Hb α chains and NADH
B1	loss of CytB5R3 inhibited metHb α reduction	
B2		overexpression enhanced metHb α reduction
